According to paper PMC6980713:

Molecular target: T1, HMCES SRAP domain (SRAPd) (Homo sapiens, UniProt Q96FZ2 1-270)
T1 sequence: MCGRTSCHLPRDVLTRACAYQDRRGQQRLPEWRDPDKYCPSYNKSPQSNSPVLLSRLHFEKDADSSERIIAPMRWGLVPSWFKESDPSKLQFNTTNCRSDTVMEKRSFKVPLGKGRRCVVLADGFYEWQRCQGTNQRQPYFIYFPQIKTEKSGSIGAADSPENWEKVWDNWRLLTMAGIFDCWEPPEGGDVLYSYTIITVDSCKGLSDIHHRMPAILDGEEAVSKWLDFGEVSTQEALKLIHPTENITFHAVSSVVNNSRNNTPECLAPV
Experiment: X-ray crystallography

B1: P5nt palindromic DNA (dsDNA)
DNA 1: CAACGTTGTTTTT
DNA 2: CAACGTTGTTTTT
binding result: binds
